± gives the standard deviation of the averaged measurements.
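Note: PSI is a weighted mean of sequencing reads over stability bins, variants kept only with over 10 reads, mCherry proximal and sfGFP distal, peptide attached via GGGS linker.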

This series deals with Saccharomyces cerevisiae. In words: protein stability index of tFT-peptide fusion (C-terminal peptide) (PSI (0-1 scale)); higher = more stable (slower turnover). The note with it: genetic background: wild type; temperature: 30 C.
In the case of KKETKSNCRIKN, the protein stability index is 0.708 ± 0.017.
The sequence KKETRKKETKKE returned a protein stability index of 0.685 ± 0.041.
To KKETRRTNPEHK belongs 0.765 ± 0.11; to KKGGKEEPSRRK, 0.741 ± 0.084; to KKIKKKQKKKIQ, 0.664 ± 0.071.
The same measure for KKKELLTKKQKD: 0.637 ± 0.021; for KKKENKNEKKKE: 0.692 ± 0.06; for KKKGWAKEKLKR: 0.75 ± 0.051.
To KKKKIKKNKKQL belongs 0.684 ± 0.01.
Take KKKKKIKNKKKK: the protein stability index amounted to 0.741 ± 0.032.
KKKKKKEKGDST showed a protein stability index of 0.716 ± 0.076.
To KKKKKKKKKKQN belongs 0.62 ± 0.039; to KKKKKKKKKNEK, 0.755 ± 0.024.
As for KKKKKKKNKKKT, the protein stability index was determined as 0.7142 ± 0.00095.
In turn, KKKKKKNSEKMK registered a protein stability index of 0.704 ± 0.062.
KKKKKKQKHKKI came in with a protein stability index of 0.718 ± 0.033.
For KKKKKRKKEEKH, the protein stability index came to 0.721 ± 0.032.
Sequence KKKKKTQKKTKQ came in with a protein stability index of 0.6818 ± 0.0029.
KKKKNKNEKPKK displayed a protein stability index of 0.746 ± 0.074.
Sequence KKKKNNKKKKIE displayed a protein stability index of 0.702 ± 0.015.
As to KKKKQKKKYKKT, the protein stability index was found to be 0.695 ± 0.095.
Turning to KKKNEAKKKKTK, the protein stability index stood at 0.744 ± 0.058.
For the sequence KKKQTKGNQKPK, the protein stability index came to 0.7623 ± 0.0011.
To KKKRKRREKKQN belongs 0.681 ± 0.016; to KKKTKQTKVNKK, 0.64 ± 0.072.
In turn, KKNCRKNQKEET came in with a protein stability index of 0.663 ± 0.067.
KKNKKQDDKKRQ had a protein stability index of 0.645 ± 0.039.
The sequence KKNNTKKNRKRK displayed a protein stability index of 0.7 ± 0.051.
To KKQAVRVEIIGR belongs 0.655 ± 0.018; to KKQKKKKTQTNK, 0.68224 ± 0.00034.
KKQKSKSAREAS had a protein stability index of 0.658 ± 0.024.
KKQQKTKEKTES displayed a protein stability index of 0.76 ± 0.031.
Take KKRKEIKNREEK: the protein stability index is 0.739 ± 0.035.
Sequence KKRKEKRKKNSI showed a protein stability index of 0.647 ± 0.016.
KKRKGKGRDIRG gave a protein stability index of 0.7025 ± 0.0016.
On to KKRREKKYQHKI, for which the protein stability index came out at 0.713 ± 0.039.
The sequence KKRRTIKSQSKV showed a protein stability index of 0.6825 ± 0.0049.
KKSKEKGTRRQR showed a protein stability index of 0.651 ± 0.073.
To KKSKKKSKNIRK belongs 0.694 ± 0.028.
To KKSNEKERATQQ belongs 0.708 ± 0.046; to KKSVDKNKEIKL, 0.681 ± 0.12.
Consider KKTRGNNGKTQR, for which the protein stability index amounted to 0.631 ± 0.0076.
Turning to KKTSKTERDQKE, the protein stability index is 0.639 ± 0.015.
KKTTKKKRKKNK registered a protein stability index of 0.657 ± 0.018.
As for KKTVKNNQNNTD, the protein stability index was found to be 0.654 ± 0.041.
With KKVKNQGLILRW, the protein stability index is 0.673 ± 0.035.
The sequence KKVTEKSKNEKR showed a protein stability index of 0.692 ± 0.053.
To KLEEKRKEMERK belongs 0.7093 ± 0.007; to KLEERIKRTEDK, 0.7219 ± 0.0018.
KLKIKREKKKRK: the protein stability index came out at 0.668 ± 0.019.
Regarding KLKIMEDQGKKK, the protein stability index is 0.706 ± 0.12.
Take KLPILDKKAVAQ: the protein stability index stood at 0.696 ± 0.03.
With KLPPATPNSRPP, the protein stability index is 0.714 ± 0.2.
With KLPRPRHSDCPS, the protein stability index came out at 0.6505 ± 0.00069.
KLQPVTTTQTIG came in with a protein stability index of 0.6713 ± 0.004.
Regarding KNANLRLPWKAH, the protein stability index is 0.667 ± 0.029.
The sequence KNAQQYQKKQKQ registered a protein stability index of 0.797 ± 0.056.
In turn, KNEIRLKEDIRC registered a protein stability index of 0.718 ± 0.017.
Sequence KNIKKKNKNDKK returned a protein stability index of 0.6936 ± 0.0063.
Regarding KNKKKNSRKKQQ, the protein stability index is 0.702 ± 0.0083.
KNMKTEDLLIVN displayed a protein stability index of 0.727 ± 0.022.
For KNSWVLPPSPRS, the protein stability index came out at 0.68 ± 0.04.
As for KNVHKDNRSVKK, the protein stability index was 0.677 ± 0.14.
For KPGGQRTRTRRR, the protein stability index was found to be 0.622 ± 0.025.
KPSAKRRNLFKL displayed a protein stability index of 0.699 ± 0.15.
To KQAPTLFLSFIL belongs 0.5885 ± 0.0028.
The sequence KQDTRRHIHTTK had a protein stability index of 0.735 ± 0.092.
KQEDIKNKKKKE gave a protein stability index of 0.679 ± 0.032.
The same measure for KQKKIGNKITNK: 0.667 ± 0.008; for KQKKKKKEYKKK: 0.676 ± 0.027; for KQKKNKNNHRKK: 0.761 ± 0.024.
KQKQNKIKITTQ showed a protein stability index of 0.656 ± 0.0077.
With KQKRKENIHIIK, the protein stability index amounted to 0.776 ± 0.033.
As for KQQRKNEKTNTL, the protein stability index is 0.658 ± 0.16.
The sequence KQSIKKKKIKKT displayed a protein stability index of 0.634 ± 0.017.
The sequence KRAREKDGKSAD had a protein stability index of 0.676 ± 0.032.
In turn, KRARLWQKRVEK registered a protein stability index of 0.754 ± 0.14.
As for KREMESTTHSKT, the protein stability index is 0.5985 ± 0.0011.
KRFDKEWEIWRS displayed a protein stability index of 0.733 ± 0.023.
KRGFSLKEARGF yielded a protein stability index of 0.642 ± 0.008.

Values taken from the supplement of paper PMC10724198.
